Laboratory results from patent US20150276749A1 (KONICA MINOLTA, published 2015).

Assays:
[1] = biological target: T1, soluble-type human DSG3-mouse IgG2aFc fusion protein (human; mouse, UniProt P32926 50-616); test: sandwich ELISA, luminescence over blank; immobilized DF151, detection DF151; antigen 1 pg/mL
T1 construct: also called human desmoglein 3; desmoglein 3 standard; not shown: mouse IgG2a Fc, printed 'mouse IgG2aFc' and 'mouse IgG2 constant region'
T1 sequence: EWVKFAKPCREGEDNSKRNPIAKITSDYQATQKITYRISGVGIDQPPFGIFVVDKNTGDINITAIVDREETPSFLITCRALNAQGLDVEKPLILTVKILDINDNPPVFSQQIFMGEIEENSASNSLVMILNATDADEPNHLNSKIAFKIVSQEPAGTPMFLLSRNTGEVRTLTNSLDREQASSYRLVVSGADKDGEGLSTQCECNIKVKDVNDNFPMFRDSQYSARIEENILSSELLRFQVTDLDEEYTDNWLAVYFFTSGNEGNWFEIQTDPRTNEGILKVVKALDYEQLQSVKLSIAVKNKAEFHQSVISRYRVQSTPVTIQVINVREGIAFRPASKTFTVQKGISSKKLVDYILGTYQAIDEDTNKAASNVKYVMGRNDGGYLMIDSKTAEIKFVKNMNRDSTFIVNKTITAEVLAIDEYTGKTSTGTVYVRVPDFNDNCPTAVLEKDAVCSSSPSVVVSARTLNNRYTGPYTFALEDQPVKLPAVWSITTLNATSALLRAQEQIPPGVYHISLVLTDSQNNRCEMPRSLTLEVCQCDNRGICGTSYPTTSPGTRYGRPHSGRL
Description: (§1) Subsequently, the antigen solutions having the above-described concentrations were each added to the plate in an amount of 50 μL/well, and the plate was incubated at room temperature for 1 hour. Then, the antigen solution was removed, and the plate was washed with 0.05% Tween 20-PBS three times. Thereafter, the 1-μg/mL biotinylated antibody solution was added in an amount of 50 μL/well, and the plate was incubated at room temperature for 1 hour.
(§2) Then, after removing the streptavidin-HRP solution and washing the plate with 0.05% Tween 20-PBS three times, a substrate solution (SuperSignal ELISA Femto Maximum Sensitivity Substrate (registered trademark); Pierce Biotechnology, Inc.) was added in an amount of 100 μL/well. One minute thereafter, the luminescence intensity was measured using a luminometer, Fluoroskan Ascent FL (trade name, Thermo Electron Corporation).
(§3) The numerical values shown in Table 1 represent the minimum values of the antigen solution concentration having an S/N ratio of higher than 2 (hereinafter, referred to as “detection limit concentration”) and the unit of the numerical values is pg/mL. The S/N ratio was determined by dividing the luminescence intensity at the respective antigen solution concentrations ([…]) by the luminescence intensity of an antigen-free blank antigen solution (0 μg/mL).

[2] = biological target: T1, soluble-type human DSG3-mouse IgG2aFc …; test: sandwich ELISA, luminescence over blank; immobilized DF151, detection DF151; antigen 1000 pg/mL
Description: as §1, §2, §3

[3] = biological target: T1, soluble-type human DSG3-mouse IgG2aFc …; test: sandwich ELISA, luminescence over blank; immobilized DF151, detection D219-3; antigen 5000 pg/mL
Description: as §1, §2, §3

[4] = biological target: T1, soluble-type human DSG3-mouse IgG2aFc …; test: SPFS sandwich; immobilized DF151, detection D219-3; antigen 1,000 pg/mL (µg/mL in the source)
Description: (§4) Once again, a Tris-buffered saline (TBS) containing 0.05% by mass of Tween 20 was fed and circulated in the flow path for 10 minutes to wash the flow path. Then, with the flow path being filled with PBS buffer (pH 7.4), the assay area was irradiated with laser light (640 nm, 40 μW) from the back side of the metal thin films, and the fluorescence intensity was measured using a photomultiplier tube (PMT) arranged above the assay area. The thus measured value was defined as “signal” (S) at a desmoglein 3 concentration of 100 μg/mL.
(§5) On another front, the fluorescence intensity was also measured by the same procedures as described above, except that a PBS solution containing no desmoglein 3 (0 μg/mL) was fed in place of the PBS solution containing 100 μg/mL of desmoglein 3. The thus measured value was defined as “noise” (N).
(§6) Further, the fluorescence intensity was measured by the same procedures as described above, except that the desmoglein 3 concentration of the fed PBS solution was changed to 10,000 μg/mL, 5,000 μg/mL, 1,000 μg/mL, 200 μg/mL, 50 μg/mL, 10 μg/mL, 3.16 μg/mL, 1 μg/mL, 0.316 μg/mL, 0.1 μg/mL and 0.031 μg/mL. The thus measured values were each defined as “signal” (S) at the respective concentrations.

[5] = biological target: T1, soluble-type human DSG3-mouse IgG2aFc …; test: sandwich ELISA, luminescence over blank; immobilized DF151, detection DF151; antigen 5000 pg/mL
Description: as §1, §2, §3

[6] = biological target: T1, soluble-type human DSG3-mouse IgG2aFc …; test: sandwich ELISA, luminescence over blank; immobilized DF151, detection D219-3; antigen 1 pg/mL
Description: as §1, §2
The numerical values shown in Table 1 represent the minimum values of the antigen solution concentration having an S/N ratio of higher than 2 (hereinafter, referred to as “detection limit concentration”) and the unit of the numerical values is pg/mL. […]

[7] = biological target: T1, soluble-type human DSG3-mouse IgG2aFc …; test: sandwich ELISA, luminescence over blank; immobilized DF151, detection MAB1720; antigen 25000 pg/mL
Description: as §1, §2, §3

[8] = biological target: T1, soluble-type human DSG3-mouse IgG2aFc …; test: sandwich ELISA, luminescence over blank; immobilized DF151, detection DF151; antigen 25000 pg/mL
Description: as §1, §2, §3

[9] = biological target: T1, soluble-type human DSG3-mouse IgG2aFc …; test: sandwich ELISA, luminescence over blank; immobilized DF151, detection DF151; antigen 40 pg/mL
Description: as §1, §2, §3

[10] = biological target: T1, soluble-type human DSG3-mouse IgG2aFc …; test: SPFS sandwich; immobilized DF151, detection MAB1720; antigen 1,000 pg/mL (µg/mL in the source)
Description: as §4, §5, §6

[11] = biological target: T1, soluble-type human DSG3-mouse IgG2aFc …; test: sandwich ELISA, luminescence over blank; immobilized DF151, detection MAB1720; antigen 1000 pg/mL
Description: as §1, §2, §3

B1: DF151 (DF151[I] antibody) (antibody, mouse IgG2b, kappa, V domains shown)
VH: EVQLQQSGPELVKPGASVKISCKASGYSFTAYYMHWVKQSPEKCLEWIGQINPSTGGTTYNQKFKAKATLTVDKSSSTAYMQLKSLTSEDSAVYYCARWGDSWGQGTTLTVSS
VL: DIVLTQSPASLAVSLGQSVTISCRASESVEYYGTSLMQWYQQKPGQPPKLLIYGASDVESGVPARFSGSGSGTDFSLNIHPVEEDDIAMYFCQQSRKVPYTFGSGTKLEIKR
notes: Complete antibody; Biotinylated as detection antibody in ELISA; labeled with Alexa Fluor 647 as detection antibody in SPFS; also called DF151 antibody
S/N ratio [1]: 0.9
S/N ratio [2]: 2.8
S/N ratio [3]: 9.2
S/N ratio [4]: 24.4
S/N ratio [5]: 11.1
S/N ratio [6]: 0.8
S/N ratio [7]: 82.2
S/N ratio [8]: 55.2
S/N ratio [9]: 0.9
S/N ratio [10]: 60.8
S/N ratio [11]: 4.1
